The source of these data is publication PMC6239170.

The target of series [1] is IMP3 RRM12 (UniProt O00425 1-161). Briefly: ITC. (In general: ITC needs no label: the signal is the heat of the interaction.)
Series [2] addresses IMP3 RRM12 Y5A (UniProt O00425 1-161, Y5A). Briefly: ITC.

IMP3 RRM12, sequence (O00425 1-161): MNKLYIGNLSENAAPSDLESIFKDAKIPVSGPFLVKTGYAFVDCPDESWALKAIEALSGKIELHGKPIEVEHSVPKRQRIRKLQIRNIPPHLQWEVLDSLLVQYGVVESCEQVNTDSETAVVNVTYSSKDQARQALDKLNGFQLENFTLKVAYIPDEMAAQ
IMP3 RRM12 Y5A, sequence (O00425 1-161 Y5A): as the sequence (O00425 1-161) above, with Y5A counted along it

In the case of GGGG (ssRNA), the binding result in series [1] was “no binding”.
With ACAC (ssRNA), the binding result in series [2] was “no binding”.
With UUUU (ssRNA), the binding result in series [1] is reported as “no binding”.
